Experimental findings from the nanobody polyreactivity screen of Harvey et al. (2022) are described below.

This data set is described as follows: yeast display, Sf9 membrane polyspecificity reagent, FACS + sequencing; frameworks hold sequencing errors. The method, boiled down: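 Synthetic nanobody libraries on Saccharomyces cerevisiae BJ5465 were galactose-induced for 36–48 hours, stained 1 hour at 4 °C with 10% biotinylated, detergent-solubilized Sf9 membrane reagent and enriched on streptavidin microbeads. FACS then separated cells into low and high (top ~1%) gates by anti-HA (expression) and streptavidin (reagent binding) fluorescence. Genes were colony-PCR amplified, MiSeq 2 × 250 sequenced and CDR-length filtered. A clone's polyreactivity label is that of its gate of origin.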
Consider “QVQLVESGGGLVQAGGSLRLSCGASGRIFYSNAMGWYRQAPGTERELVAAITGSGGRTHYADSVKGRFTISRDNAKNTVYLQMNSLKPEDTAVYYCAKDGYFPEFDYWGQGTQVTVSS”, for which the “polyreactivity (PSR sort gate)” value is “high polyreactivity”.

With “QVQLVESGGGLVQAGGSLRLSCGASGSIFVNKAMGWYRPAPGKERELVAAISSRSSRTFYADSVKGRFTISRDHAKNTVYLKMNILKPEDTEVYSCAVKKRAPDGDYWGQGTQVTVSS”, the “polyreactivity (PSR sort gate)” value is listed as “high polyreactivity”.

Regarding “QVQLVESGGGLVQAGGSLRLSCGASGSTFVAYDMGWYRQGPGKERELVAAISWSDATTYYADSVKGRFTISRDNAKNTVYLLMNSLNPEDTAVYYCAATRDTNNMDYWGQGTQVTVSS”, the “polyreactivity (PSR sort gate)” value was “low polyreactivity”.

Take “QVQLVESGGGLVQAGGSLRLSCGASGYIFGYYAMGWYRQAPRKERDLVAAISSSGGSTYYADSVKGRFTISRDHAKNTVYLQMNSLKPEDTAVYYCAAYRWGTHDRLDYWGQGTQVTVSS”: the “polyreactivity (PSR sort gate)” value was “high polyreactivity”.

Take “QVQLVESGGGLVQAGGSLRLSCPAPGRIFDRNAMGRYRQAPGKERELVAAISGSGGRTYYADSVKGRFTISRDNAKNTVYLQMNSLKPEDTAVYYCAASRKYGYGDWGQGTQVTVSS”: the “polyreactivity (PSR sort gate)” value is given as “high polyreactivity”.

As to “QVQLVESGGGLVQAGGSLRLSCPASASIFLSNMGWYRQAPGKERELVAAITIGGSTDYADSVKGRFTISRDNAKNTVYLQMNSLKPEDTAVYYCNADNPYSDGADSLGNYWGQGTQVTVSS”, the “polyreactivity (PSR sort gate)” value is recorded as “low polyreactivity”.

As for “QVQLVESGGGLVQAGGSLRLSCPASGFIFQHYAMGWYRQAPGKERELVAAIDFTDGSTYYADSVKGRFTISRDNAKNTVYLQMNSLKPEDTAVYYCNALDYLYGGIYLDEDYWGQGTQVTVSS”, the “polyreactivity (PSR sort gate)” value is recorded as “low polyreactivity”.

“QVQLVESGGGLVQAGGSLRLSCPASGFIFWYNVMGWSRQAPGKERELVAAISGRGGSTYYADSVKGRFTISRDNAKNTVYLQMNSLKPEDTAVYYCNTFSYRSGAYGYWGQGTQVTVSS”: the “polyreactivity (PSR sort gate)” value is “high polyreactivity”.

For the sequence “QVQLVESGGGLVQAGGSLRLSCPASGFTFDVNAMGSYRQAPGKERELVATISSNGGSTYYADSVKGRFTISRDNAKNTVYLQMNSLKPEDTAVYYCNRGEIYFDNDDFDYWGQGTQVTVSS”, the “polyreactivity (PSR sort gate)” value is “low polyreactivity”.

As for “QVQLVESGGGLVQAGGSLRLSCPASGFTFYYYAMGWYRQAPGKERELVAAISYSGGSTYYADSVKGRFTISRDNAKNTVYLQMNRLKPEDTAVYYCAADLSTYRRGFDYWGQGTQVTVSS”, the “polyreactivity (PSR sort gate)” value is on record as “high polyreactivity”.

With “QVQLVESGGGLVQAGGSLRLSCPASGGIFGRYAMGWYRQAPGKERELVAAISSSGGRTYYADSVKGRFTISRDNAKNTVYLQMNSLKPEDTAVYYCNADRHSTYGYWGQGTQVTVSS”, the “polyreactivity (PSR sort gate)” value is given as “high polyreactivity”.

As to “QVQLVESGGGLVQAGGSLRLSCPASGIIFSTYAMGWYRQAPGKERELVATITSSGSNTYYADSVKGRFTISRDNAKNTVYLQMNSLKPEDTAVYYCATYSFFWWQYDYWGQGSQVTVSS”, the “polyreactivity (PSR sort gate)” value is given as “high polyreactivity”.

For “QVQLVESGGGLVQAGGSLRLSCPASGLIYYRYVMGWYRQAPGKERELVAAISGNGASTYYADSVKGRFTISRDNAKNTVFLQMNSLKPVDTAVYYCNADVYVSSKTHSSYPQWWGYDYWGQGTQVTVSS”, the “polyreactivity (PSR sort gate)” value is “low polyreactivity”.

“QVQLVESGGGLVQAGGSLRLSCPASGRIFGVYAMGWYRQAPGKESELVAAIRYRGGSTYYADSVKGRFTISRDNAKNSVYLQMNSLIPEDTAVYYCAAEVWGVGYYAPYGYWGQGTQVTVSS”: the “polyreactivity (PSR sort gate)” value was “high polyreactivity”.

As to “QVQLVESGGGLVQAGGSLRLSCPASGRIFGYNSMGWYRQAPGKEREMVATMSSGGGSNYADSVKGRFTISRDNAKNTVYLQMKSLKPEDTAVFYCAADLFLDGSSLYAPNWWPDGWNTYRVLGGYWGQGTQVTVSS”, the “polyreactivity (PSR sort gate)” value was “low polyreactivity”.

On to “QVQLVESGGGLVQAGGSLRLSCPASGRIFRYYPMGWYRQAPGKEREFVAGITWSGGRTYYADSVKGRFTISRDNAKNTVFVQMNSLKPEDTAVYYCNADAGTRVGWWDDYDYWGQGTQVTVSS”, for which the “polyreactivity (PSR sort gate)” value is recorded as “low polyreactivity”.

In the case of “QVQLVESGGGLVQAGGSLRLSCPASGRIFYRYAMGWYRQEPGKERELVADITWRGGRTYYADSVKGRFTISRDNAKNTVYLQMNSLKPEDTAVYYCAATGGFSWSRDYWGQGTQVTVSS”, the “polyreactivity (PSR sort gate)” value is on record as “low polyreactivity”.

As for “QVQLVESGGGLVQAGGSLRLSCPASGSIIIRNAMGWYRQAPGKERELVAAISIGDGSTYADSVKGRFTISRDNAKNTVYLQMNSLKPEDTAVYYCAADRYGFYLESYYWGQGTQVTVSS”, the “polyreactivity (PSR sort gate)” value is “low polyreactivity”.

As for “QVQLVESGGGLVQAGGSLRLSCPASGSIIYYAMGWSRQPPGKEREFVAAITKSGGSTYYADSVKGRFTFSRDNAKNTVYLQMNSLKPEDTAVYYCSARGTWAGFYYWGQGTQVTVSS”, the “polyreactivity (PSR sort gate)” value is “high polyreactivity”.

For “QVQLVESGGGLVQAGGSLRLSCPASGSIYGLYSMGWYRQAPGKERELVAVITYSVGTTYYADSVKGRFTISRDNAKNTVYLQMNSLKPEDTAVYYCAADLYWYYPWSAYYGEYDYWGQGTQVTVSS”, the “polyreactivity (PSR sort gate)” value is “low polyreactivity”.

As to “QVQLVESGGGLVQAGGSLRLSCPASGSNLYPYAMGSSTQPPATEREMVATISYSVVSTYYAESVKGRFTISRDNAKNTVYLQMNSLKPEDTAVYYCADKSRSSKYVYWGQGTQVSVSS”, the “polyreactivity (PSR sort gate)” value is listed as “high polyreactivity”.

In the case of “QVQLVESGGGLVQAGGSLRLSCPASGSTFAIYGMGWYRQAPGKERELVAGITRGGSTNYADSVKGRFTISRDNAKNTVYLQMNILKPEDTAVYYCNSPLGVRRFKSKGRSHYEYWGQGTQVSVSS”, the “polyreactivity (PSR sort gate)” value is “high polyreactivity”.

In the case of “QVQLVESGGGLVQAGGSLRLSCPASGSTFGPYAMGWYRQAPGKERELVATISGSGSSTYYADSVKGRFTISRDNAKNTVDLQMNSLKPEDTAFYYCATDLYFDLRYDYWGQGTQVTVSS”, the “polyreactivity (PSR sort gate)” value is “low polyreactivity”.

For the sequence “QVQLVESGGGLVQAGGSLRLSCPASGSTFYEYAMGWYRQEPGKERELVAAITSGGSTYYADSVKGRFTISRDNAKYTVYLQLNSQKPEDTAVYYCAADPRIRRGDRSTHGYDYWGQGTQVTVSS”, the “polyreactivity (PSR sort gate)” value is “low polyreactivity”.

Consider “QVQLVESGGGLVQAGGSLRLSCPASGTLTVNTMGWYRQAPGKERELVAAISTGDTTTYADSVKGRFTISRDNAKNTVYVQMNSLKPEDTAVYYCNVDIGVYAYESDYWGQGSQVTVSS”, for which the “polyreactivity (PSR sort gate)” value was “low polyreactivity”.

On to “QVQLVESGGGLVQAGGSLRLSCPDSAFTFSLYGMGWYRQAPGKEREMVAAIRSGGSTNYADSVKGRFTISRDNAKNTVYLQMNSVKPEDTAVYVCATDIHSVHNNRDKHDYDYWGQGTQVTVSS”, for which the “polyreactivity (PSR sort gate)” value is “low polyreactivity”.

As to “QVQLVESGGGLVQAGGSLRLSCSACGGIFDWYAMGWYRQAPGKERELVAAIDFSGDSTYYADSVKGRFTISRDNAKNTVYLQMNSLKPEDTAVYYCAAETNTWYLFDYWGQGTQVTVSS”, the “polyreactivity (PSR sort gate)” value was “high polyreactivity”.

“QVQLVESGGGLVQAGGSLRLSCSASGFIFFRYSMGWYIQAPGKERELVAAINSSGDSTYADSVKGRFTISRDNAKNTFYLQMNSLKPEDTAVYYCATGGRTEIWYPTLDYWGQGTQVTVSS”: the “polyreactivity (PSR sort gate)” value is recorded as “low polyreactivity”.

Regarding “QVQLVESGGGLVQAGGSLRLSCSASGFIFQGYAMGWDRQAPGKERELVATITTSSRTYYADSVKGRFTISRDNAKNTVYLQMYSLKPEDTAVYYCATRGSYRSQRWYGYWGQGTQVTVSS”, the “polyreactivity (PSR sort gate)” value is listed as “high polyreactivity”.

Regarding “QVQLVESGGGLVQAGGSLRLSCSASGFIFYKNAMGWYRQAPGKERELVAAISGGGGSTYYADSVKGRFTISRDNAKNTVYLQMNSLKPDDTAVYYCATYSFRRTGWRYDYWGQGSQVTVSS”, the “polyreactivity (PSR sort gate)” value is listed as “high polyreactivity”.

For the sequence “QVQLVESGGGLVQAGGSLRLSCSASGFNFRRYAMGLYRQAPGKERELVAVITSGGSTYYADSVKGRFTISRDNAKNTVYLQMNSLKTEDTAVYYCAARYYWYSQEYVLSSWWGDYCGQGTQVTVSS”, the “polyreactivity (PSR sort gate)” value is recorded as “high polyreactivity”.

In the case of “QVQLVESGGGLVQAGGSLRLSCSASGIIFYFYAMGWYRQAPGKERELVAAISDDGVSTDYADSVKGRFTISRDNAKNTVYLQMNSLKPEDTAVFYCNARYSGYLRLDYWGQGTQVTVSS”, the “polyreactivity (PSR sort gate)” value was “low polyreactivity”.

Turning to “QVQLVESGGGLVQAGGSLRLSCSASGITFKLNSMGWYRQAPGKERELVAAITSTGGSTYYADSVKGRFTISRDNAKNTVYLQMNSLKPEDTAVYYCATDILIDGFYSDYWGQGTQVTVSS”, the “polyreactivity (PSR sort gate)” value was “high polyreactivity”.

Turning to “QVQLVESGGGLVQAGGSLRLSCSASGITFLHYAMGWYIQAPGKERELVARITYSGSSTYYADSVKGRFTISRDNAKNTVYLQMNSLKPEDTAVYYCNASASWGRWSRTGTPRYYYWGQGTQVTVSS”, the “polyreactivity (PSR sort gate)” value is recorded as “high polyreactivity”.

On to “QVQLVESGGGLVQAGGSLRLSCSASGLTFYSYTKGWYRQAPGKERELVAAISYSGGNTYYADSVKGRFTISRDNAKNTVYLQMNSLKQEDTAVYYCNAYFRWYWLIEYDYWGQGTQVTVSS”, for which the “polyreactivity (PSR sort gate)” value was “high polyreactivity”.

With “QVQLVESGGGLVQAGGSLRLSCSASGNIIRKYAMGWYRQAPGKEREFVAAISSSGGRTYYADSVKGRFTISRDNAKNTVYLQMNSLKPEDTAVYYCAKDPYGRLQPRPRFGYWGQGTQVTVSS”, the “polyreactivity (PSR sort gate)” value is recorded as “high polyreactivity”.

As to “QVQLVESGGGLVQAGGSLRLSCSASGNNFESYGMGWYRQAPGKERELVATINTSSGSTNYADSVKGRFTISRDNAKNTVYVQMNSLKPEDTAVYYCAAVFVEQGEDDYWGQGTQVTVSS”, the “polyreactivity (PSR sort gate)” value is reported as “low polyreactivity”.

On to “QVQLVESGGGLVQAGGSLRLSCSASGRIFFSYAMGWYRQAPGKERELVAAISRDGGTPYYADSVKGRFTISRDNAKNTVSLLLNSLKPEDTAVYYCADDWYLRRRIYGYWGQGTEVTVSS”, for which the “polyreactivity (PSR sort gate)” value was “high polyreactivity”.

Take “QVQLVESGGGLVQAGGSLRLSCSASGRIFKRYAMGWYRQSPGKERELVAAFTRGGSTNYADSVKGRFTISRDNAKNTVYLQMNSLKPEDTAVYYCNRYGGTRYWGRGTQVTVSS”: the “polyreactivity (PSR sort gate)” value is given as “high polyreactivity”.

Consider “QVQLVESGGGLVQAGGSLRLSCSASGRIFPRYAMGWYIQEPGKEMELFATISSGGSTYYADSVKGRFTITRDNAKNTVYLQMNSLKPEDTADYYCADRKGQYTVINGMDYWGQGTQVTVSS”, for which the “polyreactivity (PSR sort gate)” value is on record as “low polyreactivity”.
